What was measured:
[1] = target: FLAG-tagged UNC-45 (UNC-45^FLAG)
[2] = target: T1, myc-tagged UFD-2 (^mycUFD-2), Q09349
T1 chain: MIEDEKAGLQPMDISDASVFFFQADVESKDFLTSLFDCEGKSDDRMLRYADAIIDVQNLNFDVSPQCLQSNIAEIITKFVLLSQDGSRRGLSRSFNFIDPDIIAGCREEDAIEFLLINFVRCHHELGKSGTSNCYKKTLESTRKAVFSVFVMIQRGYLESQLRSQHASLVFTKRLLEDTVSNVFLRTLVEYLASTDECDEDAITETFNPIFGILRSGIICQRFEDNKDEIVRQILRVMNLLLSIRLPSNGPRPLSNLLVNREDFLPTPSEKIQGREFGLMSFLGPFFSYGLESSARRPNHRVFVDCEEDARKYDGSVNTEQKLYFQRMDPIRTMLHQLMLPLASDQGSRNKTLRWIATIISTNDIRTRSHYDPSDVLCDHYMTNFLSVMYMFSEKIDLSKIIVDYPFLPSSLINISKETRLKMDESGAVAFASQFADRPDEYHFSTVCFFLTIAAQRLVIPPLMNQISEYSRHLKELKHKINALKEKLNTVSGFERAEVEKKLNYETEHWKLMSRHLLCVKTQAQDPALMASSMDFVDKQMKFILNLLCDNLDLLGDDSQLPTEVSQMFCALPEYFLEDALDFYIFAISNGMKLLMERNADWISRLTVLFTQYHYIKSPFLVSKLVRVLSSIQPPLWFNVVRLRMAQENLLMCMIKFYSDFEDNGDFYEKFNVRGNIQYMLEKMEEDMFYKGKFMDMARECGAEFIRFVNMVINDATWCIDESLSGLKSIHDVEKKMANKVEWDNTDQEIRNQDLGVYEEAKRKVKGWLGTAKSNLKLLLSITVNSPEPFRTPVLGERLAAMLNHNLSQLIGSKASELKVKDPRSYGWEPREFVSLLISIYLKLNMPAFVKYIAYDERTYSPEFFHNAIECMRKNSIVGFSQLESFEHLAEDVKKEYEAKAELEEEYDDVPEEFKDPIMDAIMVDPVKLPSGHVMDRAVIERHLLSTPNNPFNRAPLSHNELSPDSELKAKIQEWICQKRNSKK

Protein	in vitro ubiquitylation of UNC-45 (with E1 and the E2 LET-70), Western blot [1]	in vitro multiubiquitylation of UNC-45 with both enzymes present, Western blot [2]
myc-tagged UFD-2 (^mycUFD-2) (protein) MIEDEKAGLQPMDISDASVFFFQADVESKDFLTSLFDCEGKSDDRMLRYADAIIDVQNLNFDVSPQCLQSNIAEIITKFVLLSQDGSRRGLSRSFNFIDPDIIAGCREEDAIEFLLINFVRCHHELGKSGTSNCYKKTLESTRKAVFSVFVMIQRGYLESQLRSQHASLVFTKRLLEDTVSNVFLRTLVEYLASTDECDEDAITETFNPIFGILRSGIICQRFEDNKDEIVRQILRVMNLLLSIRLPSNGPRPLSNLLVNREDFLPTPSEKIQGREFGLMSFLGPFFSYGLESSARRPNHRVFVDCEEDARKYDGSVNTEQKLYFQRMDPIRTMLHQLMLPLASDQGSRNKTLRWIATIISTNDIRTRSHYDPSDVLCDHYMTNFLSVMYMFSEKIDLSKIIVDYPFLPSSLINISKETRLKMDESGAVAFASQFADRPDEYHFSTVCFFLTIAAQRLVIPPLMNQISEYSRHLKELKHKINALKEKLNTVSGFERAEVEKKLNYETEHWKLMSRHLLCVKTQAQDPALMASSMDFVDKQMKFILNLLCDNLDLLGDDSQLPTEVSQMFCALPEYFLEDALDFYIFAISNGMKLLMERNADWISRLTVLFTQYHYIKSPFLVSKLVRVLSSIQPPLWFNVVRLRMAQENLLMCMIKFYSDFEDNGDFYEKFNVRGNIQYMLEKMEEDMFYKGKFMDMARECGAEFIRFVNMVINDATWCIDESLSGLKSIHDVEKKMANKVEWDNTDQEIRNQDLGVYEEAKRKVKGWLGTAKSNLKLLLSITVNSPEPFRTPVLGERLAAMLNHNLSQLIGSKASELKVKDPRSYGWEPREFVSLLISIYLKLNMPAFVKYIAYDERTYSPEFFHNAIECMRKNSIVGFSQLESFEHLAEDVKKEYEAKAELEEEYDDVPEEFKDPIMDAIMVDPVKLPSGHVMDRAVIERHLLSTPNNPFNRAPLSHNELSPDSELKAKIQEWICQKRNSKK	addition of one to three ubiquitins to the substrate protein UNC-45	
myc-tagged CHN-1 (^mycCHN-1) (protein) MSSGAEQHNTNGKKCYMNKRYDDAVDHYSKAIKVNPLPKYYQNRAMCYFQLNNLKMTEEDCKRALELSPNEVKPLYFLGNVFLQSKKYSEAISCLSKALYHNAVITNAPDIENALKRARHQKYEEEESKRIVQDVEFHTYLESLIEKDRQENSENPEELQRADMAKKRLTELTLATQEKRQNREVPEMLCGKITLELMKEPVIVPSGITYDREEIVQHLRRIGHFDPVTRKPLTENEIIPNYALKEVIEKFLDDNPWAKYEPGGMV	the addition of full-length CHN-1 proceeds to efficient ubiquitin conjugation. However, the majority of conjugates appeared to contain only one to three ubiquitin moieties	these enzymes together dramatically stimulated the multiubiquitylation reaction, yielding UNC-45 conjugates with significantly longer chains than those conjugated by CHN-1 or UFD-2 alone

— patent US20090053196
